One data set addresses T1, module 2+TE (Saccharopolyspora erythraea, UniProt Q03131+Q03133).
T1 construct: a single module of the DEBS PKS fused to the thioesterase (TE) termination region of module 6; made in house; host or cells: E. coli BL21(DE3) co-expressing B. subtilis sfp
The following applies: diffusive loading, shown earlier; cited from earlier work.

The next data set addresses T2, module 5+TE (Saccharopolyspora erythraea, UniProt Q03133).
T2 construct: a single module of the DEBS PKS fused to the thioesterase (TE) termination region of module 6; thioesterase (TE) domain of DEBS (end of the same DEBS3 polypeptide); made in house; host or cells: E. coli BL21(DE3) co-expressing B. subtilis sfp
The following applies: diffusive loading, shown earlier; cited from earlier work.

In the next data set the target is T3, module 6+TE (Saccharopolyspora erythraea, UniProt Q03133, DEL53-1503).
T3 construct: a single module of the DEBS PKS fused to the thioesterase (TE) termination region of module 6; made in house; host or cells: E. coli BL21(DE3) co-expressing B. subtilis sfp
The note with it: diffusive loading, shown earlier; cited from earlier work.

Data set [1] deals with (5)M2+TE, (5)M5+TE, and (5)M6+TE. The note with it: Wu et al. 2000; cited from earlier work.
In the next data set the target is T4, (5)M3+TE (Saccharopolyspora erythraea, UniProt Q03132+Q03133).
T4 construct: (5)M3+TE: module 3 with N-terminal linker from module 5; N-terminal interpolypeptide linker of DEBS module 5 (start of DEBS3, Q03133); His6 (C); made in house; host or cells: E. coli BL21(DE3) co-expressing B. subtilis sfp
The note with it: previously shown; cited from earlier work.

The target of the next data set is T5, (3)M3+TE (Saccharopolyspora erythraea, UniProt Q03132+Q03133).
T5 construct: encodes module 3 of DEBS (M3) with its own N-terminal linker and with the thioesterase fused to the C-terminus; natural N-terminal interpolypeptide linker of module 3 (start of DEBS2, ahead of the Module 3 feature); His6 (C); made in house; host or cells: E. coli BL21(DE3) co-expressing B. subtilis sfp
The note with it: previously shown; cited from earlier work.

For data set [2], the system named is (5)M2+TE, (5)M5+TE, and (5)M6+TE. Description: Diketide incorporation, statements made for all three modules together. Format: biochemical. The following applies: control studies, data not shown. As to the method:
Qualitative Substrate Incorporation Assays. The reaction buffer for the diketide incorporation assays contained 400 mM NaH2PO4 (pH 7.2), 2.5 mM DTT, 1 mM ETDA, 20% glyercol (reaction buffer C). 1 μM module, 20 μM acyl-ACP, 500 μMDL-[2-^14C]-methylmalonyl CoA (ARC), and 4 mM NADPH (Sigma) were incubated in 20 μL of the reaction buffer at 30° C. for 1.5 h. The reactions were either spotted directly onto a TLC plate (Whatman 250 μM silica gel, UV254), or first extracted with EtOAc followed by spotting of the organic extracts on a TLC plate. The TLC plates were resolved using 60% EtOAc in hexanes, and the radioactive products were visualized on a Packard InstantImager.
Determination of kcat Values. […] To quench the reactions, 20 μL reaction aliquots were mixed with 80 μL of 12.5% SDS. kcat values for the acyl-ACP substrates were determined by measuring steady-state saturating rates at multiple substrate concentrations (varying from 40 to 90 μM 4). […]
Qualitative Assays of Diketide Incorporation by Acyl-ACPs. […] 2000, 122, 4847-4852 (It should be noted that elongation of 4c and 4d by modules 5+TE and 6+TE yielded minor quantities of unreduced triketide lactones, indicating less efficient β-ketoreductase activity on these two anti-diketide substrates than on the two syn-diketide substrates.). […]

Data set [3] deals with T6, M2 and M3+TE (Saccharopolyspora erythraea).
T6 construct: Plasmid pBP19 contains module 2 of DEBS (M2) and is a derivative of pRSG64; made in house; host or cells: E. coli BL21(DE3) co-expressing B. subtilis sfp
Description: Inhibition of tetraketide production by synthetic peptide, M2-M3 linker pair. The following applies: peptide 1 to 100 μM, 1.0 μM M2 and M3+TE. Format: biochemical. The protocol:
(§1) Inhibition of Tetraketide Production. The ability of the synthetic peptide to inhibit the transfer reaction, and thus the production of tetraketide, was tested under the same reaction conditions described for the two module coincubations. The concentrations of M2 and M3+TE were both 1.0 μM, and the concentrations of M2(4) and (5)M3+TE were 0.5 and 1.0 μM, respectively. The only difference was the addition of the peptide at concentrations ranging from 1 to 100 μM to the assay containing M2 and M3+TE [or alternatively M2(4) and (5)M3+TE]. For greater accuracy, each inhibition assay was performed side by side with a control lacking inhibitor. The effect of the inhibitor was thus determined by dividing the inhibited rate by the control rate.

The next data set addresses T7, M2(4) and (5)M3+TE (Saccharopolyspora erythraea, UniProt Q03131+Q03132).
T7 construct: Plasmid pST179 encodes a derivative of M2 containing the C-terminal linker of DEBS module 4 (M4); made in house; host or cells: E. coli BL21(DE3) co-expressing B. subtilis sfp
Description: Inhibition of tetraketide production by synthetic peptide, M4-M5 linker pair. Format: biochemical. The following applies: peptide concentrations up to 100 μM. The protocol: as §1

For data set [4], the target named is T8, individually assayed modules, including M3+TE (Saccharopolyspora erythraea, UniProt Q03132+Q03133).
T8 construct: encodes module 3 of DEBS (M3) with its own N-terminal linker and with the thioesterase fused to the C-terminus; natural N-terminal interpolypeptide linker of module 3 (start of DEBS2, ahead of the Module 3 feature); His6 (C); made in house; host or cells: E. coli BL21(DE3) co-expressing B. subtilis sfp
Briefly: Effect of synthetic peptide on individually assayed modules. Format: biochemical. The protocol: In Vitro Polyketide Production. Assays of individual modules contained 1.0 μM protein, 1-10 mM N-acetylcysteamine thioester of the “natural” (2S,3R)-2-methyl-3-hydroxypentanoic acid diketide (NDK) (1), 4 mM NADPH, 440 mM sodium phosphate, 1 mM EDTA, 2.5 mM dithiothreitol (DTT), and 20% w/v glycerol, pH 7.2, in 80 μL. Reactions with M2 or M2(4) included 0.3 mM ^14C-methylmalonyl-CoA (specific activity adjusted to 10.4 mCi/mmol), and those with M3+TE or (5)M3+TE included 0.5 mM ^14C-methylmalonyl-CoA (specific activity reduced to 1.1 mCi/mmol). [M2(4) refers to a derivative of M2 in which the C-terminal linker has been replaced with its counterpart from module 4, whereas (5)M3 refers to a derivative of M3 in which the N-terminal linker has been replaced with its counterpart from module 5 (see FIG. 4).] Both concentrations of methylmalonyl-CoA were saturating, but different concentrations were needed due to the disparate rates of turnover between the modules with and without the thioesterase. The reaction mixtures were preincubated to 30° C. and started with the addition of the methylmalonyl-CoA. […] Product formation was quantified by comparison with standards of the labeled methylmalonyl-CoA. […]

Data set [5] in a line: CD spectroscopy of the M3 N-terminal peptide. Format: physicochemical. As to the method:
CD Spectroscopy. The CD spectrum of the M3 N-terminal peptide was recorded in a 1-mm path-length cell at a sample concentration of 100 μM in phosphate-buffered saline (PBS; 0.15 M KCl, 25 mM phosphate, pH 6.9). Measurements were made using an Aviv 62DS spectropolarimeter. Concentration was determined by tyrosine absorbance at 275 nm in 8 M guanidine hydrochloride.

The mark [6] stands for this setting: listed as N-terminal linker of module 3.
Setting [7] is: listed as synthetic peptide mimic of the N-terminal linker of M3.

Turning to `CCC(O)C(C)C(=O)SCCNC(C)=O` (stereo not drawn) [2a], the “kcat, NAC thioester substrate” value at module 2+TE was 0.0767 s⁻¹; on module 6+TE, 0.283 s⁻¹. Further, at module 5+TE, the “kcat (elongation rate constant), NAC thioester substrate” value is 0.00417 s⁻¹. In addition, the “incorporation of NAC thioester (qualitative)” value in [1] was “substrates for the three modules”; at (5)M3+TE, “readily incorporated and elongated”; on (3)M3+TE it was “readily incorporated and elongated”.

Consider `CCC(O)C(C)C(=O)SCCNC(=O)CCNC(=O)C(O)C(C)(C)COP(=O)(O)OP(=O)(O)OCC1OC(n2cnc3c(N)ncnc32)C(O)C1OP(=O)(O)O` (stereo not drawn) [5a], for which the “CoA thioester compared with NAC thioester 2a as substrate” value in data set [2] was “approximately equivalent substrates”.

For “H2N-MTDSEKVAEYLRRATLDLRAARQRIRELESD-amide (H-MTDSEKVAEYLRRATLDLRAARQRIRELESD-NH2) [M3 N-term]”, the “inhibition of tetraketide lactone 2 formation” value is recorded as “could inhibit the formation of 2” in [3] (setting [6]); “shown to inhibit the formation of tetraketide lactone 2” in [3] (listed as peptide corresponding to the N-terminal linker of module 3); “lowered the overall rate of tetraketide production in a dose-dependent fashion” in data set [3] (setting [7]); “No inhibitory effect” in the data set with M2(4) and (5)M3+TE (setting [6]); “no such effect” with M2(4) and (5)M3+TE (setting [7]). For the same molecule, the “inhibitory effect upon individually assayed modules” value in data set [4] was “no inhibitory effect”. Besides, the helical content result in data set [5] (100 μM in PBS pH 6.9, listed as N-terminal linker peptide of M3) was “approximately 50%”; in data set [5] (100 μM in PBS pH 6.9, listed as peptide mimic), “ca. 50%”.

These data come from patent publication US7001748B2, “Methods of making polyketides using hybrid polyketide synthases” (The Board of Trustees of the Leland Stanford Junior …, priority 1999, dated 2006).
